One substance from PMC3607249 can be followed below.

The target in this experiment is Sulfolobus islandicus Orc1-1 Walker B mutant E147A (ATP-bound) (Sulfolobus islandicus). Kind of experiment: AUC.

A word on the stoichiometry N: it is a count of units in the complex or per binding partner. In the case of “Sulfolobus islandicus Orc1-1 Walker B mutant E147A (ATP-bound) (natural protein)”, the stoichiometry N is 2.
